Results from article PMC10889368, “Mesenchymal Transglutaminase 2 Activates Epithelial ADAM17: Link to G-Protein-Coupled Receptor 56 (ADGRG1) Signalling” (International Journal of Molecular Sciences, 2024).

Columns and labels:
[1] = biological target: GPR56 (Mus musculus) (UniProt Q8K209); conditions: cited from earlier work
[2] = biological target: T1, human recombinant transglutaminase 2 (TG2), wild type (human, UniProt P21980 1-687); test: pull-down; N-GPR56-Fc fusion proteins from CHO conditioned medium held on protein G-Sepharose beads, washed (20 mM Tris/HCl, pH 7.4, 150 mM NaCl), incubated with TG2 (50 µg/mL) in 50 µL overnight at 4 °C; eluted with 0.1 M glycine/HCl pH 2.5; Western blot; conditions: both partners purified
T1 construct: transglutaminase 2, human; also called native TG2; wild type TG2; source: E. coli BL21(DE3pLysS), purified to homogeneity
T1 sequence (looked up): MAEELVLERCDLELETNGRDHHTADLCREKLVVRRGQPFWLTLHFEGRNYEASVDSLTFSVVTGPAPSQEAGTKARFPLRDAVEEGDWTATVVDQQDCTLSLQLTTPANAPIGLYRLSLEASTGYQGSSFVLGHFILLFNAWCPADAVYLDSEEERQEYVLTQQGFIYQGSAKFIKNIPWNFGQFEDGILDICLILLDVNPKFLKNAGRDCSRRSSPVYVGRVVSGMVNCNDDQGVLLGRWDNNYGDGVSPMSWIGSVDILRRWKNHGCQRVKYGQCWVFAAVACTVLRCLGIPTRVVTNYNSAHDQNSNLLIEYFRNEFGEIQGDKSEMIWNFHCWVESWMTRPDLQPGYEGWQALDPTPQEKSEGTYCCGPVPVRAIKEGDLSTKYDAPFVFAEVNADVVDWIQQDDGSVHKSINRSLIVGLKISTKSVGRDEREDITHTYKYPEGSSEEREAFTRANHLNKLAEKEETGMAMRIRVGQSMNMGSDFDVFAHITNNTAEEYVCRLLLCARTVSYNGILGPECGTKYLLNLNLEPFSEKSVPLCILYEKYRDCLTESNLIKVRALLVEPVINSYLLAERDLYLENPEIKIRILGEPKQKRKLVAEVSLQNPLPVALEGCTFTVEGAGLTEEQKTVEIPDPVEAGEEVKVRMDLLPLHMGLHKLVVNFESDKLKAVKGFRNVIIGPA

[3] = biological target: T2, human C230-A TG2 mutant (oxidation resistant mutant of TG2) (human, UniProt P21980 1-687, C230A); test: as above; conditions: both partners purified
T2 construct: transglutaminase 2, human, with C230A; source: E. coli BL21(DE3pLysS), purified to homogeneity
T2 sequence (looked up): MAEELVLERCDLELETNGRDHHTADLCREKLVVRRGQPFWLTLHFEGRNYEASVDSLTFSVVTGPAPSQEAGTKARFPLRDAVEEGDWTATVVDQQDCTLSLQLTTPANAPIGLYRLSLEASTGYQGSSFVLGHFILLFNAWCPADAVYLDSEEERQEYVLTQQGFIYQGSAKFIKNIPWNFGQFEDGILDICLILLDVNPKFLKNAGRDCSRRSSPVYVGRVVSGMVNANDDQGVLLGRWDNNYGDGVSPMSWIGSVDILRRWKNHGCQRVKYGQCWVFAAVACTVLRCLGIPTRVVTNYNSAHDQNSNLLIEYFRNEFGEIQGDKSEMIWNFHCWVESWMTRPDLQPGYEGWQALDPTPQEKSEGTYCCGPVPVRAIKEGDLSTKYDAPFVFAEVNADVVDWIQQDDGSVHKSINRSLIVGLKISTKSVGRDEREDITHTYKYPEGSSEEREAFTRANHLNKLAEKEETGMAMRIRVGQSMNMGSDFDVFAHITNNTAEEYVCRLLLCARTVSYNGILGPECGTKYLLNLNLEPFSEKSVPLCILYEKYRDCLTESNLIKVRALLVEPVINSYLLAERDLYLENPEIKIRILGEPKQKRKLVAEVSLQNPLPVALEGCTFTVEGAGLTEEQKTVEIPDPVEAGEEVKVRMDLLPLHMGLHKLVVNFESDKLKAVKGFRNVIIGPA

[4] = biological target: T3, wild type murine TG2 (murine, UniProt P21981 1-686); test: as above; conditions: both partners purified
T3 construct: transglutaminase 2, mouse, wild type; construct not described
T3 sequence (looked up): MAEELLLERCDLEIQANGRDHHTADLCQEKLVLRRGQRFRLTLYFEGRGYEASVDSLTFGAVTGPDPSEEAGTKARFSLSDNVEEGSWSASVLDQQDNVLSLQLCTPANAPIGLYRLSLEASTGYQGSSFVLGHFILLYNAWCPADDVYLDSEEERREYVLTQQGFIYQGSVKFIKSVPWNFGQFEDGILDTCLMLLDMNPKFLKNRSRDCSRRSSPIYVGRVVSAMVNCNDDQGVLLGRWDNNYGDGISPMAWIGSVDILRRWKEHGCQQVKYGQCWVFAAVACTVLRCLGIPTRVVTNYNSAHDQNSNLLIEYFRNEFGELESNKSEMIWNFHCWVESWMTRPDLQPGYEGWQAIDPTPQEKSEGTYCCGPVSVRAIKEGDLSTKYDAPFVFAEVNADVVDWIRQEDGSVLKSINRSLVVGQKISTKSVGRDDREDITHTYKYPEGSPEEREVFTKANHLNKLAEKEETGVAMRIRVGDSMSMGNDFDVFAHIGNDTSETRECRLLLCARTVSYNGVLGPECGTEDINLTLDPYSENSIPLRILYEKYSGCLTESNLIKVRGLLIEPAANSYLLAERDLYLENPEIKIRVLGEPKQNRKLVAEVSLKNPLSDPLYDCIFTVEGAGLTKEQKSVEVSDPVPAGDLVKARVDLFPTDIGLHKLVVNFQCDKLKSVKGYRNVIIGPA

[5] = biological target: T4, C277S-TG2 (catalytically deficient TG2 C277S mutant) (human, UniProt P21980 1-687, C277S); test: SPR; BIAcore T200, protein A sensor chip; 270-320 RU of 1-382 N-GPR56-Fc fusion protein, or conditioned medium containing it (1:10 in HBS), captured; C277S-TG2 (DTT treated) as analyte, 8 serial dilutions; 25 °C, HBS (10 mM Hepes pH 7.4, 0.15 M NaCl, 3 mM EDTA, 0.005% P20), 30 µL/min; with 20 mM Ca2+; equilibrium analysis; conditions: both partners purified
T4 construct: transglutaminase 2 with C277S; the results call the analyte of the kinetic studies human TG2; Incubated with 10 mM DTT for 10 min and re-buffered into HBS before SPR; source: E. coli BL21(DE3pLysS), purified to homogeneity
T4 sequence (looked up): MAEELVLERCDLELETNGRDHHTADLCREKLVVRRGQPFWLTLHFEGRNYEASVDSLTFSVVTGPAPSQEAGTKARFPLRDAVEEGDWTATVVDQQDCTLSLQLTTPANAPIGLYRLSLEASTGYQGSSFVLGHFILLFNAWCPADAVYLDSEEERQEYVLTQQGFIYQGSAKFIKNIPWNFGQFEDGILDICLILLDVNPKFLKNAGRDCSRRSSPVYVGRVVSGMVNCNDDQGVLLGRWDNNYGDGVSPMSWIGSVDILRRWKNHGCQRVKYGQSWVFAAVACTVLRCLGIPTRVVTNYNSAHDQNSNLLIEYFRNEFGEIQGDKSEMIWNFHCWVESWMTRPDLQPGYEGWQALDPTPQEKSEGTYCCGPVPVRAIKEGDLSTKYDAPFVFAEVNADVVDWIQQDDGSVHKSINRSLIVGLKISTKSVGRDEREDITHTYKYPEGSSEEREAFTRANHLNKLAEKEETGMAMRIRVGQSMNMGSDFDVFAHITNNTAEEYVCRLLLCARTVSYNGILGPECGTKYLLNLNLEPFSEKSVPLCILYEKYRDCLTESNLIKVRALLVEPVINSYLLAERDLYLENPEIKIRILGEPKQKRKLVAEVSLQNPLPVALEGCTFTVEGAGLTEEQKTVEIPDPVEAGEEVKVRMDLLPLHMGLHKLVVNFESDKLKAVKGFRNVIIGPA

Chain of GPR56 (Mus musculus) (Q8K209 26-382): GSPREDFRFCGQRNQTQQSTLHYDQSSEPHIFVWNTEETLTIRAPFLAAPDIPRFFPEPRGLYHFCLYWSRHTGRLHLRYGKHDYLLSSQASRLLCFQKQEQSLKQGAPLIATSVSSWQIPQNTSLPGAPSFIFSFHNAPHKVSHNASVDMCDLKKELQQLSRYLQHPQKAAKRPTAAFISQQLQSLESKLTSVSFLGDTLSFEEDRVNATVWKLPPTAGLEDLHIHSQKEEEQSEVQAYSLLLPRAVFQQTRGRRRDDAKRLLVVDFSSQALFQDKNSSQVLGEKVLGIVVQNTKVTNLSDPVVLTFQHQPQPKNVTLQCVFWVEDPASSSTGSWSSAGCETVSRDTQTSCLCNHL

## TG2 (from UniProt P21981)
[1]
  Kd: 330 nM

B1: 1-382 N-GPR56-Fc fusion protein (Fc fusion, human, UniProt Q9Y653 26-382, looked up)
chain: RGHREDFRFCSQRNQTHRSSLHYKPTPDLRISIENSEEALTVHAPFPAAHPASRSFPDPRGLYHFCLYWNRHAGRLHLLYGKRDFLLSDKASSLLCFQHQEESLAQGPPLLATSVTSWWSPQNISLPSAASFTFSFHSPPHTAAHNASVDMCELKRDLQLLSQFLKHPQKASRRPSAAPASQQLQSLESKLTSVRFMGDMVSFEEDRINATVWKLQPTAGLQDLHIHSRQEEEQSEIMEYSVLLPRTLFQRTKGRSGEAEKRLLLVDFSSQALFQDKNSSQVLGEKVLGIVVQNTKVANLTEPVVLTFQHQLQPKNVTLQCVFWVEDPTLSSPGHWSSAGCETVRRETQTSCFCNHL
notes: signal peptide in the construct; Fc retains the cysteine residues for dimerization; The limits 1-382 are printed for the SPR; also called human N-GPR56; source: CHO cells, transfected; conditioned medium, purified on protein G-Sepharose, or conditioned medium used directly; not shown: Fc (human IgG1 heavy chain, amino acids 3-236), C-terminal, kept
[2]
  binding result: binds
[3]
  binding result: binds
[4]
  binding result: binds
[5]
  Kd: ~1200 nM
